Here are results for 1 substance from US20240044881A1.

Experiment [1] addresses Type I ClyA-CS nanopore (Salmonella typhi) (UniProt Q8Z727).
In experiment [2] the target is Type II ClyA-CS nanopore (Salmonella typhi) (UniProt Q8Z727).
Experiment [3] concerns the target Type I ClyA-CS nanopore (Salmonella typhi) (UniProt Q8Z727). The experiment is described as follows: single-channel current recording, planar lipid bilayer, -35 mV.
The target in experiment [4] is Type II ClyA-CS nanopore (Salmonella typhi) (UniProt Q8Z727). The experiment is described as above.
In experiment [5] the target is Type III ClyA-CS nanopore (Salmonella typhi) (UniProt Q8Z727). The experiment is described as above.
Experiment [6] addresses Type I ClyA-CS nanopore (Salmonella typhi) (UniProt Q8Z727). The experiment is described as follows: single-channel current recording, planar lipid bilayer, -150 mV.
The target in experiment [7] is Type II ClyA-CS nanopore (Salmonella typhi) (UniProt Q8Z727). Described as above.

In turn, “human thrombin (from UniProt P00734 328-622) (enzyme)” had an HT Dwell time at -150 mV in experiment [1] of 1 ms. The substance also showed an HT Dwell time at -150 mV in experiment [2] of 235 ms. Further, in experiment [3], the HT Level 1 at -35 mV, IRES % (residual current) worked out at 56%; the HT Level 2 at -35 mV, IRES % (residual current) was 23%; the HT Occupancy of L2 at -35 mV, % worked out at 30%; the occupancy of the more superficial binding site (level 1) at -35 mV, % came out at 70%. In experiment [4], the HT Level 1 at -35 mV, IRES % (residual current) came to 68% and the HT Level 2 at -35 mV, IRES % (residual current) stood at 31%. In experiment [5], this substance yielded an HT Level 2 at -35 mV, IRES % (residual current) of 32%; an HT Occupancy of L2 at -35 mV, % of 100%; a duration of HT blockades at -35 mV of 55 ms. In experiment [6], this substance showed an HT Level 2 (-150 mV), IRES, % (residual current) of 23% and an HT Occupancy of L2 at -150 mV, % of 100%. In experiment [7], the HT Level 2 (-150 mV), IRES, % (residual current) worked out at 31% and the HT Occupancy of L2 at -150 mV, % is 100%.
